Data set [1] concerns NC(=O)c1ccc[n+]([C@@H]2O[C@H](COP(=O)(O)OP(=O)(O)OC[C@H]3O[C@@H](n4cnc5c4ncn4ccnc54)[C@H](O)[C@@H]3O)[C@@H](O)[C@H]2O)c1. The experiment in a line: purified protein. To be noted: 50 mM sodium acetate pH 5.5, 150 mM NaCl, 500 μM CaCl2, 25 °C, 10 ng enzyme.
Text: fluorometric hydrolysis assay, Michaelis-Menten fit on AfNADase
The target in data set [2] is AfNADase^D219A/E220A (Aspergillus fumigatus) (UniProt Q4WL81). Briefly: crystal structure.
The data set “SEC” deals with the molecule itself. Briefly: SEC. For orientation: SEC sorts molecules by how far they enter the pores of the column.

In the case of AfNADase (Aspergillus fumigatus Af293), in data set [1], the Km came out at 54.8 ± 15.3 µM and the Vmax was 4570 µmol/min/mg.
“AfNADase^D219A/E220A (from UniProt Q4WL81) (enzyme)” registered a stoichiometry N in data set [2] of 2.

B1: Aspergillus fumigatus NADase (AfNADase), wild type (enzyme)
chain: LQHTEDSLFPARCWPDPCAGITFQNDTYVCGDPRLGPVVLPQKFPLNNELRTYARFGALCPAEFLDKWATDVAPNGTYIYPPANGFALDTEEQPILGNATLPVGMKLDRFGSEYGTFLAPLGAPYIERSLPPSNLNTFDGMYPYNYHVYQVTKEFVVGLGPIAPWFEQPGMGTQFVTYTNVLGLIDDGYLRRLDESEYDEKVEYSNPYTPGPNQ
modifications: N-linked glycosylation sites (as observed in the wild-type structure 6YGE)
B1: in “SEC”, the binding result is reported as “binds”.

The Km is the substrate concentration at which the rate is half of its maximum. One may read the Vmax as the rate approached at saturating substrate. As usually defined, the stoichiometry N is a count of units in the complex or per binding partner.
